Data taken from PMC4660432.
One block for each substance: values may come before it.

Columns and labels:
[1] = system: TAF1 double bromodomain (TAF1-BrD); assay: EMSA; conditions: EMSA: 20 mM Tris-HCl pH 7.5, 40 mM NaCl, 0.75 mM EDTA, 1 mM DTT, 1 h at 25 C, 2.5 pmol NCP, 5% native PAGE in 0.2x TBE
[2] = molecular target: unmodified nucleosome core particle (biochemical analyses; N11-thrombin-tagged H4) (human) (UniProt P04908); assay: native gel or EMSA; 2.5 pmol NCP mixed with the TAF1-BrD at the indicated ratios; 20 mM Tris-HCl pH 7.5, 40 mM NaCl, 0.75 mM EDTA, 1 mM DTT; 1 hr at 25 °C; native 5% PAGE in 0.2x TBE; densitometry; dissociation constants estimated from triplicates
[3] = molecular target: K5/K8/K12/K16-tetra-acetylated nucleosome core particle (biochemical analyses; N11-thrombin-tagged H4) (human) (UniProt P04908); assay: as above
[4] = molecular target: K12-acetylated nucleosome core particle (human) (UniProt P04908); assay: as above
[5] = molecular target: K5/K8-di-acetylated nucleosome core particle (human) (UniProt P04908); assay: as above
[6] = molecular target: K16-acetylated nucleosome core particle (human) (UniProt P04908); assay: as above

Substance: H4-K5/K8-di-acetylated NCP
Kd ([1]; histone H4 K5ac, K8ac): 6.1 µM

Substance: H4-K5/K8/K12/K16-tetra-acetylated NCP
Kd ([1]; histone H4 K5ac, K8ac, K12ac, K16ac): 3.9 µM

Substance: H4-K12ac NCP
Kd ([1]; histone H4 K12ac): 12.3 µM

Substance: H4-K16ac NCP
Kd ([1]; histone H4 K16ac): 13.3 µM

Kd [2]: 19.3 µM
Kd [3]: 3.9 µM
Kd [4]: 12.3 µM
Kd [5]: 6.1 µM
Kd [6]: 13.3 µM
Substance: TAF1 double bromodomain (from UniProt P21675 1-1893) (domain or fragment)

Substance: unmodified NCP
Kd [1]: 19.3 µM
